From patent publication US20160264663A1 (published 2016)

Legend:
[1] = biological target: human podocalyxin (human); experiment: flow cytometry, A172 cells
[2] = biological target: human podocalyxin (human); experiment: flow cytometry, MCF7 cells
[3] = biological target: human podocalyxin (human); experiment: flow cytometry, CaOV3 cells
[4] = biological target: human podocalyxin (human); experiment: flow cytometry, HUVEC cells
[5] = biological target: human podocalyxin (human); experiment: flow cytometry, SKOV3 cells
[6] = biological target: human podocalyxin (human); experiment: flow cytometry, T47-D cells
[7] = biological target: human podocalyxin (human); experiment: flow cytometry, OVCAR3 cells
[8] = biological target: human podocalyxin (human); experiment: flow cytometry, 293 HEK cells
[9] = biological target: human podocalyxin (human); experiment: flow cytometry, OVCAR10 cells
[10] = biological target: human podocalyxin (human); experiment: flow cytometry, 5 ug/mL antibody, 293 cells
[11] = biological target: human podocalyxin (human); experiment: flow cytometry, 5 ug/mL antibody, A172 cells
[12] = biological target: human podocalyxin (human); experiment: flow cytometry, 5 ug/mL antibody, MCF7 cells
[13] = biological target: human podocalyxin (human); experiment: flow cytometry, 5 ug/mL antibody, CaOV3 cells
[14] = biological target: human podocalyxin (human); experiment: flow cytometry, 5 ug/mL antibody, HUVEC cells
[15] = biological target: human podocalyxin (human); experiment: flow cytometry, 5 ug/mL antibody, T47-D cells
[16] = biological target: human podocalyxin (human); experiment: flow cytometry, 5 ug/mL antibody, OVCAR3 cells
[17] = biological target: human podocalyxin (human); experiment: flow cytometry, 5 ug/mL antibody, OVCAR10 cells
[18] = biological target: human podocalyxin (human); experiment: flow cytometry, supernatant 1:5, MDA-MB-231 cells
[19] = biological target: human podocalyxin (human); experiment: kinetic exclusion assay (KinExA 3200), A172 cells
[20] = biological target: human podocalyxin (human); experiment: flow cytometry, 5 ug/mL antibody, MDA-MB-231 cells
[21] = biological target: human podocalyxin (human); experiment: flow cytometry, supernatant neat, MDA-MB-231 cells
[22] = biological target: human podocalyxin (human); experiment: flow cytometry, supernatant 1:125, MDA-MB-231 cells
[23] = biological target: human podocalyxin (human); experiment: flow cytometry, MDA-MB-231 cells
[24] = biological target: human podocalyxin (human); experiment: kinetic exclusion assay (KinExA 3200), MDA-MB-231 cells
[25] = biological target: human podocalyxin (human); experiment: flow cytometry, supernatant 2:15 (so in the source), MDA-MB-231 cells
[26] = biological target: human podocalyxin (human); experiment: flow cytometry, supernatant 1:5, hPodo/MDA-MB-231 transient transfectants
[27] = biological target: human podocalyxin (human); experiment: flow cytometry, supernatant neat, hPodo/MDA-MB-231 transient transfectants
[28] = biological target: human podocalyxin (human); experiment: FACS, hPodo/MDA cells (MDA-MB-231 transfected with human podocalyxin cDNA)
[29] = biological target: human podocalyxin (human); experiment: flow cytometry, supernatant 1:125, hPodo/MDA-MB-231 transient transfectants
[30] = biological target: human podocalyxin (human); experiment: flow cytometry titration on 293-6E cells (endogenous podocalyxin), 24 hours at 4 C
[31] = biological target: human podocalyxin (human); experiment: flow cytometry titration on 293-6E cells (endogenous podocalyxin), 48 hours at 4 C
[32] = biological target: human podocalyxin (human); experiment: flow cytometry, supernatant 2:15 (so in the source), hPodo/MDA-MB-231 transient transfectants
[33] = biological target: human podocalyxin (human); experiment: FACS on MDA-MB-231 cells; biotinylated antibody 5 ug/mL, no competitor (FACS Buffer row)

Sequence of human podocalyxin (human) (O00592 23-558): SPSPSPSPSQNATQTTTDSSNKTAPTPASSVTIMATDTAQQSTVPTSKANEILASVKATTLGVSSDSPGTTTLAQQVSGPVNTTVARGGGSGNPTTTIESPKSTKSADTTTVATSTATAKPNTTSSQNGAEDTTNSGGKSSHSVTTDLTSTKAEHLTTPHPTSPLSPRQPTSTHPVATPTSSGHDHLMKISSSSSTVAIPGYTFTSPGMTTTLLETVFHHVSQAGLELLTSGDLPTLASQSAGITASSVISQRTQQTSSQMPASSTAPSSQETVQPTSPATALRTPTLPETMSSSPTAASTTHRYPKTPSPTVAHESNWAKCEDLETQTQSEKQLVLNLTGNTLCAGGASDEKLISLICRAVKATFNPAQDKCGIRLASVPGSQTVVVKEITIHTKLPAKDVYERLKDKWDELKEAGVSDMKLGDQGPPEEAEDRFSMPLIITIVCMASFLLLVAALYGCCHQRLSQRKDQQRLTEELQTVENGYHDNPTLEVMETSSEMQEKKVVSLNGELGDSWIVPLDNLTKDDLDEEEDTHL

B1: Rb/Hu Podo83 (Podo83 rabbit VH and VL, human IgG1 chimera) (antibody, V domains shown)
VH: CQSLAESGGRLVTPGTPLTLTCTASGIDLSSYAMGWVRQAPGKGLEYIGFIYASGSIFYASWAKGRFTISKTSSTTVDLKMTSLTTEDTATYFCARAGYYFGGNYDLNLWGQGTLVTVSS
VL: DIVLTQTPASVEVAVGGTVTIKCQASQSISNYLAWYQRKPGQPPRLLIYRASTLASGVSSRFKGSGSGTQFTLTISGVECADAATYYCQQGYVSNNLDNIFGGGTEVVVK
modifications: human IgG1/kappa constant regions
Work on B1 yielded a Live cell GeoMean FL (geometric mean fluorescence units) [1] of 224000, a Live cell GeoMean FL (geometric mean fluorescence units) [2] of 28400 and a Live cell GeoMean FL (geometric mean fluorescence units) [3] of 23400. The Live cell GeoMean FL (geometric mean fluorescence units) [4] was 24500, the Live cell GeoMean FL (geometric mean fluorescence units) [5] was 59800 and the Live cell GeoMean FL (geometric mean fluorescence units) [6] was 1130. For the same binder, the Live cell GeoMean FL (geometric mean fluorescence units) [7] was 28600, the Live cell GeoMean FL (geometric mean fluorescence units) [8] was 28200 and the Live cell GeoMean FL (geometric mean fluorescence units) [9] was 1530. The Live cell GeoMean FL (geometric mean fluorescence units) [10] was 28200, the Live cell GeoMean FL (geometric mean fluorescence units) [11] was 170000 and the Live cell GeoMean FL (geometric mean fluorescence units) [12] was 60800. For the same binder, the Live cell GeoMean FL (geometric mean fluorescence units) [13] was 48800, the Live cell GeoMean FL (geometric mean fluorescence units) [14] was 44600 and the Live cell GeoMean FL (geometric mean fluorescence units) [15] was 1500. The Live cell GeoMean FL (geometric mean fluorescence units) [16] was 16500, the Live cell GeoMean FL (geometric mean fluorescence units) [17] was 2820 and the FACS signal (name not given) [18] was 121000. It also gave a Kd [19] of 0.103 nM, a Live cell GeoMean FL (geometric mean fluorescence units) [20] of 91900 and an FACS signal (name not given) [21] of 143000. It also gave an FACS signal (name not given) [22] of 50600, a Live cell GeoMean FL (geometric mean fluorescence units) [23] of 88900 and a Kd [24] of 0.0456 nM. The FACS signal (name not given) [25] was 102000, the FACS signal (name not given) [26] was 99300 and the FACS signal (name not given) [27] was 79000. The FACS signal (name not given) [28] was 178000, the FACS signal (name not given) [29] was 58500 and the EC50 [30] was 0.0295 mg/L. It also gave an EC50 (half-maximal binding) [31] of 0.0305 mg/L, an FACS signal (name not given) [32] of 155000 and an FACS signal (name not given) [33] of 139000.
